Laboratory results from PMC6141180, “The TAB1-p38α complex aggravates myocardial injury and can be targeted by small molecules” (JCI Insight, 2018).
Blank lines part the entries; values can stand above or below the binder they belong to. fluorescein = fluorescein label (on the lysine ε-amine)

Target: T1, p38α (MAPK14), nonphosphorylated (mouse, UniProt P47811 1-360)
T1 construct: mouse p38α (MAPK14); Also used as the target of the functional rows on co-expressed p38α (E. coli pETDuet-1 first cloning site; HEK293 plasmid not described); source: E. coli Rosetta II (pETDuet-1), purified
Assay: fluorescence polarisation; competition: unlabeled peptide titrated into 2 nM fluorescein-labeled MKK3b peptide and 10 μM p38α; 50 mM HEPES pH 7.4, 10 mM MgCl2, 1 mM Chaps, 1 mM DTT, 1% DMSO; ambient temperature, 20 minutes
Conditions: both partners purified

T1 sequence (P47811 whole entry): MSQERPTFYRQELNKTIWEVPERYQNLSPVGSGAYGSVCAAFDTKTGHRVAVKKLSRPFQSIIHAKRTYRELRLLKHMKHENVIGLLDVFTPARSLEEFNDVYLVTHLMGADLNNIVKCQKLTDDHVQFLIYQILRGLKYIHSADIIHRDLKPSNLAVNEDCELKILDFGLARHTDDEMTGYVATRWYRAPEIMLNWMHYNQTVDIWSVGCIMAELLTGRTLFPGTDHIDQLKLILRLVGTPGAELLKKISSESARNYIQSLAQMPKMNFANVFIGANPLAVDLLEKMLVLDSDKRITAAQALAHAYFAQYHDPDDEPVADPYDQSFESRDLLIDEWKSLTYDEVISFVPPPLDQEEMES

binding result: binds
Binder: Ac-RVYPVSVPYSSAQSTSKTSVTLSLVMPSQ-NH2 (also called TAB-1 peptide; TAB1 peptide) [TAB1 (residues 384–412) peptide]

binding result: binds
B1: fluorescein-labeled MKK3b peptide (peptide)
peptide: Ac-GKSKRKKDLRISCMSKPK(fluorescein)-NH2
notes: stretch of MKK3b, the most abundant splice variant of MAP2K3; added C-terminal lysine that carries the fluorescein; also called C-terminal labelled MKK3b peptide

binding result: binds
B2: MKK3b peptide, unlabeled (peptide)
peptide: Ac-GKSKRKKDLRISCMSKP-NH2
notes: stretch of MKK3b, the most abundant splice variant of MAP2K3; also called unlabeled MKK3b
